The source of these data is paper PMC10638095, “Visualization of conformational transition of GRP94 in solution” (Life Science Alliance, 2023).

This data set concerns the molecule itself. In words: SEC-SAXS; inline SEC-SAXS; 25 mM HEPES pH 8.0, 200 mM NaCl, 1 mM TCEP, with or without 1 mM ADP or AMPPNP; 25°C; 10 mg/ml protein, 100 μl injected; scattering fitted with dimer models (EOM, OLIGOMER). On the technique in general: SEC sorts molecules by how far they enter the pores of the column.

B1: mouse GRP94 (22-754) (natural protein, UniProt P08113 22-754, looked up)
chain: DDEVDVDGTVEEDLGKSREGSRTDDEVVQREEEAIQLDGLNASQIRELREKSEKFAFQAEVNRMMKLIINSLYKNKEIFLRELISNASDALDKIRLISLTDENALAGNEELTVKIKCDKEKNLLHVTDTGVGMTREELVKNLGTIAKSGTSEFLNKMTEAQEDGQSTSELIGQFGVGFYSAFLVADKVIVTSKHNNDTQHIWESDSNEFSVIADPRGNTLGRGTTITLVLKEEASDYLELDTIKNLVRKYSQFINFPIYVWSSKTETVEEPLEEDEAAKEEKEESDDEAAVEEEEEEKKPKTKKVEKTVWDWELMNDIKPIWQRPSKEVEEDEYKAFYKSFSKESDDPMAYIHFTAEGEVTFKSILFVPTSAPRGLFDEYGSKKSDYIKLYVRRVFITDDFHDMMPKYLNFVKGVVDSDDLPLNVSRETLQQHKLLKVIRKKLVRKTLDMIKKIADEKYNDTFWKEFGTNIKLGVIEDHSNRTRLAKLLRFQSSHHSTDITSLDQYVERMKEKQDKIYFMAGSSRKEAESSPFVERLLKKGYEVIYLTEPVDEYCIQALPEFDGKRFQNVAKEGVKFDESEKTKESREATEKEFEPLLNWMKDKALKDKIEKAVVSQRLTESPCALVASQYGWSGNMERIMKAQAYQTGKDISTNYYASQKKTFEINPRHPLIRDMLRRIKEDEDDKTVMDLAVVLFETATLRSGYLLPDTKAYGDRIERMLRLSLNIDPEAQ
notes: GRP94 (endoplasmin), mouse, residues 22-754, with the full pre-N domain and the charged linker region preserved; The N-terminal Strep-tag II is followed by a thrombin site; no thrombin cleavage is described; The C-terminal 6xHis tag was removed with TEV protease; also called mGRP94; mGrp94; source: E. coli BL21 (DE3), purified (Histrap HP, TEV cleavage, Hitrap Q HP, second Histrap HP …)
Turning to B1, the binding result was “binds”.
